Results on 3 proteins are retold here after article PMC7808410 (Nature methods, 2021).

The term stoichiometry N denotes the number of molecules, sites or subunits per partner or assembly.

B1: E. coli glutamate decarboxylase GadB (enzyme)
chain: MDKKQVTDLRSELLDSRFGAKSISTIAESKRFPLHEMRDDVAFQIINDELYLDGNARQNLATFCQTWDDENVHKLMDLSINKNWIDKEEYPQSAAIDLRCVNMVADLWHAPAPKNGQAVGTNTIGSSEACMLGGMAMKWRWRKRMEAAGKPTDKPNLVCGPVQICWHKFARYWDVELREIPMRPGQLFMDPKRMIEACDENTIGVVPTFGVTYTGNYEFPQPLHDALDKFQADTGIDIDMHIDAASGGFLAPFVAPDIVWDFRLPRVKSISASGHKFGLAPLGCGWVIWRDEEALPQELVFNVDYLGGQIGTFAINFSRPAGQVIAQYYEFLRLGREGYTKVQNASYQVAAYLADEIAKLGPYEFICTGRPDEGIPAVCFKLKDGEDPGYTLYDLSERLRLRGWQVPAFTLGGEATDIVVMRIMCRRGFEMDFAELLLEDYKASLKYLSDHPKLQGIAQQNSFKHT
B2: E. coli OmpC outer membrane osmoporin channel (natural protein)
chain: AEVYNKDGNKLDLYGKVDGLHYFSDNKDVDGDQTYMRLGFKGETQVTDQLTGYGQWEYQIQGNSAENENNSWTRVAFAGLKFQDVGSFDYGRNYGVVYDVTSWTDVLPEFGGDTYGSDNFMQQRGNGFATYRNTDFFGLVDGLNFAVQYQGKNGNPSGEGFTSGVTNNGRDALRQNGDGVGGSITYDYEGFGIGGAISSSKRTDAQNTAAYIGNGDRAETYTGGLKYDANNIYLAAQYTQTYNATRVGSLGWANKAQNFEAVAQYQFDFGLRPSLAYLQSKGKNLGRGYDDEDILKYVDVGATYYFNKNMSTYVDYKINLLDDNQFTRDAGINTDNIVALGLVYQF
B3: E. coli OmpF porin channel (natural protein)
chain: AEIYNKDGNKVDLYGKAVGLHYFSKGNGENSYGGNGDMTYARLGFKGETQINSDLTGYGQWEYNFQGNNSEGADAQTGNKTRLAFAGLKYADVGSFDYGRNYGVVYDALGYTDMLPEFGGDTAYSDDFFVGRVGGVATYRNSNFFGLVDGLNFAVQYLGKNERDTARRSNGDGVGGSISYEYEGFGIVGAYGAADRTNLQEAQPLGNGKKAEQWATGLKYDANNIYLAANYGETRNATPITNKFTNTSGFANKTQDVLLVAQYQFDFGLRPSIAYTKSKAKDVEGIGDVDLVNYFEVGATYYFNKNMSTYVDYIINQIDSDNKLGVGSDDTVAVGIVYQF

The data set concerns the molecule itself. Briefly: cryo-EM structure.
With B1, the “stoichiometry N” value worked out at 6.

B2: the “stoichiometry N” value stood at 3.

As to B3, the “stoichiometry N” value was determined as 3.
